Laboratory results published in a protein production outcome set (Wang et al. 2014).

Experiment: label from the status in PepcDB records

Sequence | protein production
MTRVDVVTRTLPPNEVSEANPWDTDRFWTVPNVLSVIRLIGVPIFLWLALGPRADGWAVAVLAVAGLTDWLDGRIARRWHQVSRIGQMLDPVADRLYIFATVIALTLRDVIPLWLVIVLIARDVCMACLMPALRTRGFTSLPVHFVGKAATFCLLYSFPLVLLGRFGTGGWTACRVLGWAFAVWGTGLYWWAFFLYLVQTIRIVRTLPRISSRGEYS | failed
SASYLILRNYRNSIEGLIEKGIRDEEFIPYYQPIVDSRTQEVVGYEVLLRWQKGHQLVPPSLFISAAEDSGLVVKITNQLIQQVHRDLAQIPAPRWVSINVVADHLEQHHLTHLLEELHWPYSERLKFELTERVPIKAMTQAQEEVFYLLKKGYQFKIDDFGTGYGGFAYLQNLQISSIKIDKMFVDTINTHDVKISVLDSIIASAQGGNIEVIAEGVEHQYQVDYLAERNVFWIQGYFYAKP | failed
MPIFPKPKVTVILANLGTPDVPTASAVRAFLKQFLSDQRVIEIPKLLWKIILYSFVLPFRPKRVAHAYASVWGQDSPMREILFAQTDALKRQLISHYPQLDLNIVPAMTYGNPGVQHILKDLAASPQEHVILLPLFPQYSATSTAPLYDAFANWIPKQRHLPGLTIIKDYYRHPVFIQALVSSVQRFQQQHGKPQKLLMSFHGIPQPYADKGDPYADRCRETARLVAKQLGLTPDDWAISFQSRFGKQEWVKPYTDELLTTWAANGIKSVQILSPAFSADCLETLEELEIQNAELFLEAGGTSYQYIPALNTSVEHLELLRQLLQAHLDALNYSLAYSAH | failed
MATRMTTIRRQTKMAIGQRIKYFRNRIGMTQKQLGEQLGFKGKTSDVRMAQYESEARVPKIDLVKQMSQIFDINTHALTVPDIDTHIGLMHTLFALEDMYGLKVKNVDGQPHLWLDSSISAPSSSVDEMFRAWMEQADKLENGEISKEEYDEWRYKYPELDTYQKRAKVPSQELSDYLVKELTKKEK | failed
MSLSTIRIGGAAVNQTPIDWENNVKNILDAIEEAKNANVEILCLPELCITGYGCEDLFLTDWVAETAIEYCFEIAASCTDITVSLGLPMRIAGITYNCVCLVENGIVKGFSAKQFLANEGVHYETRWFTAWPRNHTTTFLYNDVKYPFGDVLYNVKDARIGFEICEDAWRTDRVGIRHYEKGATLVLNPSASHFAFGKSAIRYDLVIGGSERFDCTYVYANLLGNEAGRMIYDGEVLIAHKGKLIQRNDRLSFKNVNLIYADIATDSAETPETVLTQDDLEKEFEFWEATSLGLFDYMRKSRSKGFVLSLSGGADSSACAIMVAEMIRKGLKELGLTAFLQKSNMETLFDLPALQHLPFEEQAKKITAVFLTTAYQSTRNSGDETYTSAKTLAESIGATFYNWSVDEEIEQYKATIENVIERPLTWEKDDITLQNIQARGRAPIIWMLTNVKQALLITTSNRSEGDVGYATMDGDTAGGIAPIAGVDKDFIRSWLRWAEKNRNQHGLHIVNKLAPTAELRPSEYTQTDERDLMPYDVLARIERKAIKERLSPVQVYTALLTEGPYTKNEFKYWVKKFFRLWSINQWKRERLAPSFHMDDFNIDPRSWYRFPILSSGFAKELNDLDQEGHHHHHH | not failed
MGGIYRLSLKSTEATAERLSCDTRCNYEDRDLAYSPDGRWLAIARRFSNISEDIFIRDLASAHEKRLTQGLEDIRGLSWTPDSQALVFATEDSGSSNGFTLDINTAQIRSLDVEGMSYPSSVSAEGELVYHQYHRQFQMAYFSLGDKVPGSLFPLLYSGVSHRNPDYSPEAKRIVFVSSETG | failed
MSPSCPMCTKWLDEPEFRIAELEHTRVMLNRDQFFPGYTFVFTREHVTELFHLSPPVRQGVMEEVTAVAAALYDLFQPAKMNYELLGNMVPHMHWHLVPRFATDPLWPRPIWSEPHAETLLAPEEYAGRIALIRDRLGL | failed
MDECTVTRHYEGKGRNAGRLGAVGCKNRHGEFRIGSGFKDKDRDNPPKIGTLITYRYRGFTRKGTPKFATFVRVRTDLEHHHHHH | not failed
MCSMASHDLSVFLEEFGATVNLTLPGIVSEKERLLLKLLMEGMSVTEISQYRNRSAKTISHQKKQLYEKLGIQSDITFWRDIFFQYHPQVISGTGNKNNFYIPDNRCHHIVTPEAISLALENHEFKPWIQPVFCAQTGVLTGCEVLVRWEHPQTGIIPPDQFIPLAESSGLIVIMTRQLMKQTADILMPVKHLLPDNFHIGINVSAGCFLAAGFEKECLNLVKKLGNDKIKLVLELTERNPIPVTPEARAIFDSLHQHNITFALDDFGTGYATYRYLQAFPVDFIKIDKSFVQMAGVDEISGHIVDNIVELARKPGLSIVAEGVETQEQADLMIGKGVHFLQGYLYSPPVPGNKFISEWVMKAGG | failed
MNYRLLVFDFDGTLADSEASIMGAMQLVAKEFGLSEVDCVKARPTIGLSLLRTIEIGLGLEAGDAAAAVELYRRYYKEIAFDSTCLFPGVKETQEQLRQNSLLAIASSKSRQGLLSRMRQFGIVDHFSFIAGAQDISGL | failed
MKSARPRLSDAHGRRNCARRGRRPGHQPFWRLAMNIVRYPQFSTHALQNEIKHVFDRFFEHNSDTDESAVVTAQWVPRVDIKEEPKHFVLYADLPGIDPSQIEVQMDKGILSIKGERKSESSTETERFSRIERRYGSFHRRFALPDSADADGITASGHNGVLEIRIPKRPAATPRRIHVGNGQDTSDSTVQ | failed
MADGVLAVSQEGFNTLQSYNVGEKYTADLWIQQGGLKSTASVVSFSVDKALLDSMNIADGTSYELLPADCYQLTKSSVDIPANERLLKGELTYDPAKIQELSGYDHLKYVLPLRATSSGMPFVSGRSVLLLGFKVSEPIVTIMNAGVEEINLAEVKELPVQIGVPFTNKWEISCRLESRQSVIDAYNTAHGTYFSMLPSDAYVTPETPILHSGVNQVTATYKLKDDILPGNYMLPVQIAEVTSDATIRADKDVYAAYSIIKEGDKLSKTDWKIVSFTTEEASGEGSNNGHAKHLIDGNIETFWHSRWQGGSDPLPYEIIIDMNHRVKIAQIELLPRGRGSNNPIKVVRFEASEDGTNWESIGQFGFTNQDAALKYYVKSSTARYIKLVIPDGVGNGTVAAIRELDVRGTVVNLEHHHHHH | not failed
MSRRAPMFKPLPITLQRGALRLEPLVEADIPELVSLAEANREALQYMDGPTRPDWYRQSLAEQREGRALPLAVRLGVQLVGTTRFAEFLPALPACEIGWTWLDQAQHGSGLNRMIKYLMLKHAFDNLRMVRVQLSTAASNLRAQGAIDKLGAQREGVLRNHRRLAGGRLDDTFVYSITDHEWPQVKAALEASFTG | not failed
ALTGHTVLVGWDGEASERIVELLGQDTSTSRAGLVICDSIITENPLPGRASFIKGDSLDSPAVLSRAGVVGAQRILVHTQSDSLTLAIVLTLKSLGPTGHVVAHFNNSERAALARTYAPELECTSNMAIEMLVRSAQDPGSSSVIT | failed
MFTFISIMAVGVLIGYPLRHKSQVRKITPLIHIVVCLLLFLLGLSIGLNRLIIDNLGYFCGQAAVISSLSILGSMMASLAVYHIFF | failed
SDDREMDDGRWKASALRVPLQVSSAVIKQEVVTRLAPDPVPLTEGAIGIFLSGTEPESGQEDSGYKVIDNRKYVYSEGHWGPPTANDTIYLVGNDADVCAYYPYKDSYTDKTVIPLQSQDYVETEDIYYALNTMINGFTPAITFDMVHAYSLVELKISRENYFMPCEISKITLKNSNLIKKGTINIAVDGSIHSSETGNYDLTTVTDASPHTLSVGESYVCRVLMIPVPLKIERTDAEGGEFGLSVSLVIDGQQMLVEIPYSELGEFRQGEKYVIGLKIKGTEIVPTVKALEWEDEEVNGGNKYPVE | not failed
MYCRMEFNFFMNDVVQMARKEMVESGYDQLTTPEEVDEVLKEKGTVLVMVNSVCGCAGGIARPAAAYMKNYDKKPDRFVTVFAGQDKEATARAREYFKGYAPSSPSFALLKDGEIQMMVERHEIEGHEPIQVVQKLEKAFDQYCS | failed
MRILFVGPPLYGLLYPVLSLAQAFRVNGHEVLIASGGKFAQKAAEAGLVVFDAAPGFDSEAGYRRQEALRKENNIGTKMGNFSFFSEEMTDPLVAFAGQWRPDLIVYPPLGVVGPLIAAKYDIPVVMQTVGFGHTPWHIKGVTKSLSNAYRRHGVSAPPRDLAWIDVTPPSMSILQNDGEPVISMQYVPYNGGAVWEEWWERTPDRKRLLVSLGTVKPMVDGLDLISWVMDSAGEVDAEIILHLPANARSDLRSLPPNVRLVDWLPMGVFLNGADGFIHHGGAGNTLTALHAGIPQIVFGQGADRPVNARAVVERGCGIIPGKSGLTSSMINTFLGNRALREASQEVAAEMAAQPCPTEVAKKLIAMLQHGLEHHHHHH | failed
MIIRIVQNIQRINKEGNAPLYISFYLGKEKVVIPCKLSVPTTKFDSKTGMLRGTNKEAKDINLIIERLKAKVNDILVKHRLKNLTLNKEAFMREYNNPSDFKSFHDFVASYMKTYSRRLEIGTFRHHKSCMRKFKEYCEGLQFHELTEDFLRDYLIYMKKTLCNADSTAQRNLSTIKIYVSAAIKKGYMENDPFKDFGVKRIKSNIDYLTEEELIKFISLYYDRRLPERLERTLGFFLFMCFTSLHISDARHVCLEQINNGILTYYRIKNRNCKPEAIKIPLSIPAFKIIEELQGKRKEGHLFTSLQCDQVVNRQIKEIASILEIKKKVSAKTGRHTFATIFLKKTKDVATLQKLLGHSNLKETMIYAHVLDESKQEGMQCFNSFAI | failed
MIIDINRLDRAFDLIKEGVSKGVFPGAVAAVGTRERVIRLESFGNRCLYPEKLSMNKDTLFDLASLTKVVATNTLFMIFLEKGLISVYDNVSYYLEKFKGKNKDDVTIFNLLTHTAGFVPCKPLYKLCKGYEDSIDYICRCGLSYKPGTKCVYSDFSYILLAYILEKIGGDTLDILCDRYIFKPLYMENTTFKPKGNNIAATEIDKKTKKPLIGVCHDENGRFFGGISGHAGLFSDIYDLCKFSNMLVNEGKGIISYASFKAMTTNHTLGLEDNRGYGWCIKGDKNSFMGDIAFPETFGHNGFTGTSLWVDIKNNIYAILLTNRVHPTRDNLRIIRFRRVFSNAVLASLTRLEHHHHHH | failed
MKFDESKTLLPVRKPVNGNRKTAGYKLWVLIAVLLLAFGSMLTGSVSLKGIGLFHSADGVNAFSFGDDLDVLEIEEREKVVRQMWDVYGRSGGVKVPRFWREAFEAAYEFLISDSAAVRNAAVSDIAKLSLVRFVKSESTSAQPNLH | failed
MSNCWKNVLVKPACTLLDALEIINDEALRVVLVVDESDSLLGVVTDGDIRRGLLRNLPLTADIAQVMNTTPYTAAIDTPRDELIAIMESNDILSIPLLDNGKVVGLETLHHALSTPVYENPVFIMAGGFGTRLRPLTDHCPKPMLKIGDKPILETVIRNFIKAGFINFYISTHYMPELIHQHFGDGSTLGVKITYVHEQSPLGTGGALGLLPKELPKDLPLIMMNGDVLTKVDFQRLLEFHTEHDADATMCVREYDYQIPYGVIKGEGNRITSMVEKPIQRFFVNAGIYVVSPVVIQSVPENHHIDMPTLLEQHMNKRNNVLMFPIHEYWLDIGRMDDFNRAQTDIYTLGL | failed
MGDPQVNDTLAPSARHEGDALASAVAKVKRHVLPLFVIMFIVNYLDRVNIGFVRPHLESDLGISAAAYGFGAGLFFIGYALFEVPSNMLLQKVGARLWLTRIMFTWGLVATAMAFVQNETQFYVLRFLLGVAEAGFFPGVIYYFTRWLPAAERGKAIAIFLSGSALASLISGPLAGALMQIQGLGLHGWQWMLFIEGMASVALCFFVFFWLDSKPQDAKWLSKAEQDALVATIDREQQAREAIGAVRPSAWNLLKDRQIVLFCLIYFCIQLTIYAATFWLPSIIKRMGDLSDMQVGFFNSIPWLISILAMYAFAAGSARWKFQQAWVAGALLVAATGMFMSTTGGPVFAFVAVCFAAIGFKSASSLFWPIPQGYLDARIAAAVIALINSVGNLGGFVAPTTFGLLEQQTGSIQGGLYGLAVTSVLAAIAIFFVRTRPKGAPSDDLKAPSALGQTH | failed
